# Test results as given in patent US11945858B2, “Antibodies and antibody fragments against HNAV1.7 channel and their use in pain and cancer indications” (NATIONAL RESEARCH COUNCIL OF CANADA, priority 2018, dated 2024).
# Values joined by “and” are separate entries in the source; they are usually repeats but may differ in a detail not shown here. Equal values may be shown once. “Also recorded” adds a separate entry of the source.
# Key:
# [1] = test system: OD1-evoked Nav1.7-mediated spontaneous pain behaviours; type: in vivo, mouse; settings: 100 μg, injected 60 minutes prior to OD1; 20 min after the injection
# [2] = molecular target: T1, FC5DIE3IR (Homo sapiens, UniProt Q15858); experiment: Hydrogen-Deuterium Exchange Mass Spectrometry (HDX-MS); type: binding; settings: labelling 1, 10 and 60 min
# T1 construct: The supernatant was collected and loaded on a 5 ml MabSelect™ SuRe™ column; made in house; host or cells: CHO-3E7 (transient, pTT5 vector), purified from supernatant
# [3] = molecular target: T1, FC5DIE3IR; experiment: Evaluation of apparent affinity of purified mAbs in ELISA; type: binding; settings: purified mAb, OD 405 nm
# Procedure: Screening. Hybridoma supernatants were screened by ELISA to detect specific binders. To this end, 96-well half-area plates (Costar #3690) were coated with 25 μl of FC5DIE3IR or FC5-VHH or FC5-hFc-1X0 at 5 μg/ml in PBS and incubated overnight at 4° C. Microplates were washed 3 times with PBS, blocked with PBS-BSA 1%, and 25 μl of hybridoma supernatants were added and incubated at 37° C., 5% CO2 for 2 hours. Plates were washed 4 times with PBS-Tween 20 0.05% and incubated for one hour at 37° C., 5% CO2 with 25 μl of secondary antibody alkaline phosphatase conjugated F(ab′)2 goat anti-mouse IgG Fc-gamma specific (Jackson Immunoresearch #115-056-071) diluted 1/3000 in blocking buffer. After 4 washes with PBS-Tween 20 0.05%, 25 μl of a 1 mg/ml pNPP substrate solution was added and further incubated for one hour at 37° C. OD405 nm measurements were done using a microplate reader (Spectramax 340 PC, Molecular Devices).
# Evaluation of apparent affinity in ELISA. Purified antibodies were assessed for their binding activity by ELISA in a dose-dependent binding curve. […] The data were analyzed with GraphPad Prism software using one-site specific binding-with Hill slope non-linear regression curve fit model to determine Bmax (maximum specific binding) and Kdapp (concentration needed to achieve a half-maximum binding at equilibrium) for each mAb tested. […]
# [4] = test system: CHO-3E7; experiment: Cell-ELISA on live CHO-3E7 cells; type: cell-based, Chinese hamster; settings: hybridoma supernatant, OD450 nm
# Procedure: Cell-ELISA. Sterile 96-well plates (Costar #3595) were pre-treated with 50 μl/well of branched polyethyleneimine (PEI, Sigma Cat #408727) at 25 μg/ml in PBS for 30 min at room temperature. PEI was removed and CHO-3E7 or hNAv1.7-CHO (ChanTest cat #CT4003) were seeded at 6×10^5 cells per well in FreeStyle F17 Expression Medium (Gibco Cat #A1383501) and incubated overnight at 37° C., 5% CO2. Microplates were blocked with Starting block (Thermofisher Cat #37538) for 30 min at room temperature, and 50 μl of hybridoma supernatants were added and incubated at 4° C. for 3 h. Plates were washed 5 times with PBS and incubated for one hour at 4° C. with 50 μl of secondary antibody HRP-conjugated F(ab′)2 goat anti-mouse IgG (H+L) (Jackson Immunoresearch #115-036-062) diluted 1/5000 in blocking buffer. After 10 washes with PBS, 50 μl of TMB substrate solution (Pierce Cat #34021) was added and further incubated for 60 min at room temperature. Twenty-five μl/well of stop solution ([…] 1M) was added and OD450 nm measurements were done using a microplate reader (Spectramax 340 PC, Molecular Devices).
# [5] = test system: VHH FC5; experiment: Surface Plasmon Resonance of mAbs, FC5 control; type: binding; settings: SPR; 25 °C
# Procedure: Surface Plasmon Resonance of mAbs. FC5 and FC5DIE3IR proteins were SEC purified using a Superdex 75 column (GE Healthcare) connected to an AKTAPurifier (GE Healthcare) in HBS-EP+ running buffer (10 mM HEPES, pH 7.4, containing 150 mM NaCl, 3 mM EDTA and 0.05% P20) at a flow rate of 1 ml/min. Monomeric eluted peaks were used to flow over Fc-capture 3A8 mAb surfaces. To prepare the 3A8 mAb surfaces, approximately 6000 RUs of anti-mouse IgG (GE Healthcare) was first immobilized on CM5 Series S sensor chips (GE Healthcare) at pH 5.0, using standard amine coupling methods previously reported (Hussack et al., 2011) and according to the manufacturer's instructions (GE Healthcare). HBS-EP running buffer used for SPR experiments. The mAb 3A8 was captured on the anti-mouse IgG surface using 10 μg/ml of mAb, 30 sec contact time and flow rate of 10 μl/min. IMAC-purified DI-D VHH was passed through a Superdex 75 (GE Healthcare) column for SEC purification in HBS-EP buffer (10 mM HEPES, pH 7.4, containing 150 mM NaCl, 3 mM EDTA and 0.005% P20), connected to an AKTAPurifier (GE Healthcare) at a flow rate of 1 ml/min. Test binding experiments of FC5 control and FC5DIE3IR involved flowing 1 μM concentrations of SEC-pure material over the mAb surface at a flow rate of 30 μl/min for 5 min. Surfaces could be regenerated using 10 mM glycine, pH 1.7, with a 120 sec pulse at 20 μl/min. All SPR experiments were evaluated with Biacore T200 Software v 3.0. For kinetic analysis, single cycle kinetic analysis was used by flowing a range of FC5DIE3IR concentrations (320 nM-20 nM) at a flow rate of 30 μl/min, with 600 sec contact time and 1200 sec dissociation. Regeneration conditions were the same as above. Data were fit to a 1:1 binding model and analyzed using the Biacore T200 Software v3.0.
# Surfaces were regenerated by washing with running buffer (HBS-EP). Data were analyzed with BIAevaluation 4.1 software as described (Hussack et al., 2011) and affinities determined using the steady state binding model.
# Surface Plasmon Resonance (SPR) for monoclonal antibodies.
# [6] = molecular target: hNav1.7 channels (Homo sapiens, UniProt Q15858, W1161R); experiment: Patch-clamp whole-cell recordings in hNav1.7-HEK293 cells; type: cell-based
# [7] = −20 mV, after antibody application (1 μM)
# VHH FC5, sequence (as listed by the source): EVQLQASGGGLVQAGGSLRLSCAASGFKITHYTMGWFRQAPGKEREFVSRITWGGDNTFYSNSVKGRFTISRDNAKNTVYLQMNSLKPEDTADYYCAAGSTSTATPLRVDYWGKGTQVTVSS
molecule,measurement,setting,value
"3A8: anti-hNav1.7 mouse monoclonal antibody, IgG2a, k; heavy chain SEQ ID NO: 12, light chain SEQ ID NO: 18 (antibody, V domains shown, Heavy chain of the 3A8 antibody without leader sequence; Light chain of the 3A8 antibody without leader sequence) VH: QVQLQQPGAELVKPGASVKLSCKASGYTFTNYWMHWVKQRPGQGLEWIGEINPSNGRANYNEKFKSKATLTVDKSSSTAYMQLSSLTSEDSAVYYCARSPYGYYDYWGQGTTLTVSSAKTTAPSVYPLAP VL: DVLMTQTPLSLPVSLGDQASISCRSSQSLLHSNGNTYFHWYLQKPGQSPKLLIYKVSNRFFGVPDRFSGSGSGTDFTLKISRVEAEDLGVYFCSQITHVPLTFGAGTKLELKRADAAPTVSIFPPSS",Time spent in pain behaviors (saline plus OD1 = 100%),[1],73.76%±5.38
same,"Stabilization of FC5DIE3IR in response to mAb binding (residues, differential HDX-MS)",[2],Asn121-Tyr134
same,Bmax (maximum specific binding),[3],3.2
same,ELISA on live cells (duplicates) CHO-3E7,[4]; duplicate 1,−0.027
same,ELISA on live cells (duplicates) CHO-3E7,[4]; duplicate 2,−0.018
same,"Binding to FC5 control (comment, in words)",[5],did not bind FC5; also recorded: No binding
same,Voltage-dependence of activation (shift V1/2 activation),[6]; 1 μM,−6.0±1.0 mV and −6.0 mV
same,Voltage-dependence of the steady-state fast inactivation (shift V1/2 inactivation),[6]; 1 μM,−7.1±1.7 mV and −7.1 mV
same,Reduction of the hNav1.7 current in the time course,"[6]; 1 μM, single time-course recording (FIG. 6B)",approx. 13%
same,"Onset time of the effect (exponential fit of the current decay, T)","[6]; 1 μM, single time-course recording of the figure",176 s
same,Effect on hNav1.7 currents (in words),"[6]; example recordings, 1-3 μM",reduced the hNav1.7 currents in a dose dependent manner
same,Fast inactivation (time constant),[6]; [7],0.72 ± 0.08 ms and 0.72 ms
same,Time-to-peak,[6]; [7],0.88 ± 0.07 ms and 0.88 ms
